Experimental data taken from US20210238279A1 (Johns Hopkins, published 2021).
Numbering of substitutions follows the chain as printed.

Columns and labels:
Assay in all cases: immunoblot of HEK293 lysates over-expressing FLAG-tagged ZnT homologs
[1] = molecular target: T1, human ZnT7 with C-terminal FLAG tag (human, UniProt Q8NEW0 1-376)
T1 construct: Commercial HEK293 lysate (Origene), SDS-denatured on immunoblots; not shown: C-terminal FLAG octapeptide
T1 sequence (looked up): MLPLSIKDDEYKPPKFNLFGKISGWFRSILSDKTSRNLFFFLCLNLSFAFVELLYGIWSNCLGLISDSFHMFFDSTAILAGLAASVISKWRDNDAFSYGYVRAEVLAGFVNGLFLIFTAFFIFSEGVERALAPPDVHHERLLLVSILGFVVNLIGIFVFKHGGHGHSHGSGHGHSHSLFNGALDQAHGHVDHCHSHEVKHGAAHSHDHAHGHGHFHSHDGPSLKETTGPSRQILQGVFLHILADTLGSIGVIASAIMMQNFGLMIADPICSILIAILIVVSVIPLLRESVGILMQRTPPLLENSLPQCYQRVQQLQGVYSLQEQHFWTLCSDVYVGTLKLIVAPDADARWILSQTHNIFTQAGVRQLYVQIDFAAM
Source text: (§1) FIG. 7A-7D. mAb binding specificities (FIG. 7A) mAb binding to ZnT8-His immobilized to Ni-NTA plate. Bound mAb20 (red) or mAb39 (magenta) was detected by an HRP-conjugated secondary antibody. Solid lines are least-squares fits of binding datapoints to a one-component binding process. Error bars are standard errors (n=8). (FIG. 7B) SDS-denatured mouse ZnT8-His (labeled as M) and human ZnT8-His (labeled as H) on immunoblots were detected by mAb20 or mAb39 as indicated. […] (FIG. 7C) Detection of endogenous human ZnT8 in EndoC-βH cells by mAb20 or […] immunoblotting. An equal amount of EndoC-βH lysate (5 μg total protein) was loaded to each lane. (FIG. 7D) Immunoblotting of HEK lysates with or with over-expression of a ZnT homolog as indicated. An approximately equal amount of total lysate protein (5 μg) was located to each lane, probed by either mAb20, mAb39, or anti-FALG antibody as indicated. FIG. 8. HTRF response to human ZnT8, mouse ZnT8 and human ZnT3.
(§2) Immunoblotting. SDS-solubilized cell lysate of EndoC-β cells or HEK293 cells over-expressing ZnT8 was subjected to SDS-PAGE and probed with a 1:3000 mAb20 or mAb39, followed by 1:3000 anti-mouse HRP-conjugated secondary antibody (GE Healthcare cat. #NA931V). A duplicated gel was Coomassie-stained to show an equal protein loading for each lane ([…]). To compare the mAb20 or mAb39 reactivities to different ZnT homolog, we used commercial HEK293 lysates with lentivirus-mediated over-expression of ZnT1, ZnT2, ZnT3, ZnT4, ZnT7, ZnT8, ZnT10, each is tagged by a Flag tag at the C-terminus (Origene, catalog nos. LY500001, LC412033, LC423751, LC401170, LY415673, LC428544, LC406320, and LC412886). Approximately equal amounts of total protein (5 μg) was loaded to each lane, and then probed with mAb20, mAb39, or anti-FLAG antibody (Origene, catalog no. TA50011-100) as above. The expression levels of ZnT homologs varied with ZnT1 most abundantly expressed.

[2] = molecular target: T2, human ZnT1 with C-terminal FLAG tag (human, UniProt Q9Y6M5 1-507)
T2 construct: Commercial HEK293 lysate (Origene), SDS-denatured on immunoblots; not shown: C-terminal FLAG octapeptide
T2 sequence (looked up): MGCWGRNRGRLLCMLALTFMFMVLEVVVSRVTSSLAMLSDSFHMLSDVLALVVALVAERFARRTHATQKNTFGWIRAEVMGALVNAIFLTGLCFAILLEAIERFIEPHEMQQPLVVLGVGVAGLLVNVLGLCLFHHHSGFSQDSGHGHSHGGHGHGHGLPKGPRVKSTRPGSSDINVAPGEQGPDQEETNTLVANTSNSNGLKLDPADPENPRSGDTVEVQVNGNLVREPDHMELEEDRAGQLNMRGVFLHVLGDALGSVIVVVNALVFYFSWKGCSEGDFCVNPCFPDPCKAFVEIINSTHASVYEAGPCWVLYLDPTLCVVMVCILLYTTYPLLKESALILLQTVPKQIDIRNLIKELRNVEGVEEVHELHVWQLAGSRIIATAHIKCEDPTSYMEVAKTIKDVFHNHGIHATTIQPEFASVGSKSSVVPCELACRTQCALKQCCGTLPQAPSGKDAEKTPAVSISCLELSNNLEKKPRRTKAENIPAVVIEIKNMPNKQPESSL
Source text: as §1, §2

[3] = molecular target: T3, human ZnT3 with C-terminal FLAG tag (human, UniProt Q99726 1-388)
T3 construct: Commercial HEK293 lysate (Origene), SDS-denatured on immunoblots; not shown: C-terminal FLAG octapeptide
T3 sequence (looked up): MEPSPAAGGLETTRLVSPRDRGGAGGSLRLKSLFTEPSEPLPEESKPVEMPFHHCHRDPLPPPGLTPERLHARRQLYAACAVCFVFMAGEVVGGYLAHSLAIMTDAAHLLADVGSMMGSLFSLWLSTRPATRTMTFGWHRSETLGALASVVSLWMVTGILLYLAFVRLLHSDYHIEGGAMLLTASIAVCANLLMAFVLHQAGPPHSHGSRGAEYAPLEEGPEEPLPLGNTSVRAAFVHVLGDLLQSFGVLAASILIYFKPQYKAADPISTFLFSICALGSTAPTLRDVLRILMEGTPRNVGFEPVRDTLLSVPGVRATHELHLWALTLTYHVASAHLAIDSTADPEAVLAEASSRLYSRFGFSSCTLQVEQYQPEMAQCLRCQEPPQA
Source text: as §1, §2

[4] = molecular target: T4, human ZnT2 with C-terminal FLAG tag (human, UniProt Q9BRI3 1-372, limits assumed)
T4 construct: Commercial HEK293 lysate (Origene), SDS-denatured on immunoblots; not shown: C-terminal FLAG octapeptide
T4 sequence (looked up): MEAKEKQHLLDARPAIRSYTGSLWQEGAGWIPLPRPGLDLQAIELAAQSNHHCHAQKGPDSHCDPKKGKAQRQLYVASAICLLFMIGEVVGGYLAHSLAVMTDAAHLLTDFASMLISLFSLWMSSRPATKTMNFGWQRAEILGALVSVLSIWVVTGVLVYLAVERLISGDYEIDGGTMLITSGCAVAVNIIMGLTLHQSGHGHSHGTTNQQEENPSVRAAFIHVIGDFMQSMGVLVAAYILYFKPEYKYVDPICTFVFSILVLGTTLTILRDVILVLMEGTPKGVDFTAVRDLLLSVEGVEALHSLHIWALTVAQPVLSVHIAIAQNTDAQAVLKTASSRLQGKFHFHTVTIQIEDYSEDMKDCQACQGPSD
Source text: as §1, §2

Measured: binding result

B1: mAb20 (antibody, V domains shown)
VH: QIQLVQSGPELKKPGETVKISCKASGYIFTNYPMHWVKQAPGKGLKWMGWINTYSGVPTHADDFKGRFAFSLETSANSAFLQINNLKNEDTATYFCTRSRITPTGGYAMDYWGQGTSVTVSS
VL: DVVMTQTPLSLPVSLGDQASISCRSSQSLVHSNGNTYLHWYLQKPGQSPNLLISKVSNRFSGVPERFSGSGSGTDFTLKISRVEAEDLGVYFCSQNTHVPWTFGGGTKLEIKR
notes: Mouse hybridoma mAb purified on protein A/G; In some assays it was labelled with Alexa Fluor 488 or terbium cryptate; also called monoclonal antibody mAb20; anti-ZnT8 mAb20
no binding: all assays above

B2: mAb39 (antibody, V domains shown)
VH: QVQLQQPGAELVKPGASVKLSCKASGYSFTTYWMHWVKQRPGQGLEWVGDINPRNGRTNYNEKSKSKATLTVDISSSTVYMQVSSLTSEDSAVYYCAIWSGAMDYWGPGTSVTVSS
VL: B1 VL with A19P, R24K, S32N, N50K, S54Y, E65D, N96T, W101P
notes: Mouse hybridoma mAb purified on protein A/G; In some assays it was labelled with Alexa Fluor 555 or d2; also called monoclonal antibody mAb39; anti-ZnT8 mAb39
no binding: all assays above
